By Km is commonly meant the concentration of substrate that gives half-maximal velocity.

The text below walks through data of article PMC4002121, “Trimethylation of Histone H3 Lysine 36 by Human Methyltransferase PRDM9 Protein” (The Journal of Biological Chemistry, 2014).

What all share (assay): purified protein, by the assay type
What all share (settings): other: apparent Km of the peptide, AdoMet saturating 448 μM, 1 nM PRDM9, 10 mM Tris-HCl pH 8.5, 0.01% Triton X-100, 10 mM DTT, 20 min, 23 °C, mean ± S.D., n = 3, NA = not active

Substrate in data set [1]: CC(C)C[C@H](NC(=O)[C@H](CCC(N)=O)NC(=O)[C@H](CCCCN)NC(=O)[C@H](CCCNC(=N)N)NC(=O)[C@@H]1CCCN1C(=O)[C@H](C)NC(=O)[C@H](CCCCN)NC(=O)CNC(=O)CNC(=O)[C@@H](NC(=O)[C@H](CO)NC(=O)[C@H](CCCCN)NC(=O)[C@H](CCCNC(=N)N)NC(=O)[C@H](C)NC(=O)[C@@H](NC(=O)[C@H](CCC(N)=O)NC(=O)[C@H](CCCCN(C)C)NC(=O)[C@@H](NC(=O)[C@H](CCCNC(=N)N)NC(=O)[C@H](C)N)[C@@H](C)O)[C@@H](C)O)[C@@H](C)O)C(=O)N[C@@H](C)C(=O)N[C@H](C(=O)N[C@@H](CCCCN)C(=O)N[C@@H](C)C(=O)N[C@@H](C)C(=O)O)[C@@H](C)O

Substrate in data set [2]: CC(C)[C@H](NC(=O)CNC(=O)CNC(=O)[C@@H](NC(=O)[C@H](C)NC(=O)[C@@H]1CCCN1C(=O)[C@H](C)NC(=O)[C@H](CO)NC(=O)[C@H](CCCCN)NC(=O)[C@H](CCCNC(=N)N)NC(=O)[C@H](C)NC(=O)[C@H](C)NC(=O)[C@H](CCCCN)NC(=O)[C@@H](NC(=O)[C@H](C)N)[C@@H](C)O)[C@@H](C)O)C(=O)N[C@@H](CCCCN)C(=O)N[C@@H](CCCCN)C(=O)N1CCC[C@H]1C(=O)N[C@@H](Cc1c[nH]cn1)C(=O)N[C@@H](CCCNC(=N)N)C(=O)N[C@@H](Cc1ccc(O)cc1)C(=O)N[C@@H](CCCNC(=N)N)C(=O)N1CCC[C@H]1C(=O)NCC(=O)O

Substrate in data set [3]: CC(C)[C@H](NC(=O)CNC(=O)CNC(=O)[C@@H](NC(=O)[C@H](C)NC(=O)[C@@H]1CCCN1C(=O)[C@H](C)NC(=O)[C@H](CO)NC(=O)[C@H](CCCCN)NC(=O)[C@H](CCCNC(=N)N)NC(=O)[C@H](C)NC(=O)[C@H](C)NC(=O)[C@H](CCCCN)NC(=O)[C@@H](NC(=O)[C@H](C)N)[C@@H](C)O)[C@@H](C)O)C(=O)N[C@@H](CCCCN(C)C)C(=O)N[C@@H](CCCCN)C(=O)N1CCC[C@H]1C(=O)N[C@@H](Cc1c[nH]cn1)C(=O)N[C@@H](CCCNC(=N)N)C(=O)N[C@@H](Cc1ccc(O)cc1)C(=O)N[C@@H](CCCNC(=N)N)C(=O)N1CCC[C@H]1C(=O)NCC(=O)O

Substrate in data set [4]: CNCCCC[C@H](NC(=O)[C@@H](NC(=O)[C@H](CCCNC(=N)N)NC(=O)[C@H](C)N)[C@@H](C)O)C(=O)N[C@@H](CCC(N)=O)C(=O)N[C@H](C(=O)N[C@@H](C)C(=O)N[C@@H](CCCNC(=N)N)C(=O)N[C@@H](CCCCN)C(=O)N[C@@H](CO)C(=O)N[C@H](C(=O)NCC(=O)NCC(=O)N[C@@H](CCCCN)C(=O)N[C@@H](C)C(=O)N1CCC[C@H]1C(=O)N[C@@H](CCCNC(=N)N)C(=O)N[C@@H](CCCCN)C(=O)N[C@@H](CCC(N)=O)C(=O)N[C@@H](CC(C)C)C(=O)N[C@@H](C)C(=O)N[C@H](C(=O)N[C@@H](CCCCN)C(=O)N[C@@H](C)C(=O)N[C@@H](C)C(=O)O)[C@@H](C)O)[C@@H](C)O)[C@@H](C)O

Substrate in data set [5]: CNCCCC[C@H](NC(=O)[C@@H](NC(=O)CNC(=O)CNC(=O)[C@@H](NC(=O)[C@H](C)NC(=O)[C@@H]1CCCN1C(=O)[C@H](C)NC(=O)[C@H](CO)NC(=O)[C@H](CCCCN)NC(=O)[C@H](CCCNC(=N)N)NC(=O)[C@H](C)NC(=O)[C@H](C)NC(=O)[C@H](CCCCN)NC(=O)[C@@H](NC(=O)[C@H](C)N)[C@@H](C)O)[C@@H](C)O)C(C)C)C(=O)N[C@@H](CCCCN)C(=O)N1CCC[C@H]1C(=O)N[C@@H](Cc1c[nH]cn1)C(=O)N[C@@H](CCCNC(=N)N)C(=O)N[C@@H](Cc1ccc(O)cc1)C(=O)N[C@@H](CCCNC(=N)N)C(=O)N1CCC[C@H]1C(=O)NCC(=O)O

B1: PRDM9 (Homo sapiens) (protein)
chain: SEPQDDDYLYCEMCQNFFIDSCAAHGPPTFVKDSAVDKGHPNRSALSLPPGLRIGPSGIPQAGLGVWNEASDLPLGLHFGPYEGRITEDEEAANNGYSWLITKGRNCYEYVDGKDKSWANWMRYVNCARDDEEQNLVAFQYHRQIFYRTCRVIRPGCELLVWYGDEYGQELGIKWGSKWKKELMAGREPKP
Take B1: the Km stood at 3 ± 1 µM in data set [1]; 1.5 ± 0.2 µM in data set [2]; 2.5 ± 0.3 µM in data set [3]; 1 ± 0.2 µM in data set [4]; 2.4 ± 0.4 µM in data set [5].
